How the values were obtained:
Assay in all cases: BLI Octet, IgG captured on AHC, CD33 analyte;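 further: CD33 variants and wild type run as analyte at 5, 50 and 500 nM, 700 s association then 1200 s dissociation, buffer-only reference subtracted, global 1:1 fit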
[1] = molecular target: T1, human CD33 extracellular region, wild type (human, UniProt P20138 18-259)
T1 construct: also called WT; CD33 wt
Method: (§1) Human CD33 wt and variants, were used as analyte at 3 different concentrations (500, 50 and 5 nM). Association of the analyte to the antibodies was monitored for 700 s and dissociation of the analyte from the antibodies was monitored for 1200 s. Reference subtraction was performed against buffer only wells. AHC tips were regenerated using 10 mM Glycine-HCl pH 1.7. Data were analyzed with Octet Data Analysis software HT 12.0. Data were fitted to a 1:1 binding model. Kinetic rates ka and kd and response signal were globally fitted.

[2] = molecular target: human CD33 extracellular region N20G (human, UniProt P20138 21-259)
Method: as §1

[3] = molecular target: human CD33 extracellular region N20D (human, UniProt P20138 21-259)
Method: as §1

[4] = molecular target: human CD33 extracellular region N20K (human, UniProt P20138 21-259)
Method: as §1

[5] = molecular target: human CD33 extracellular region N20V (human, UniProt P20138 21-259)
Method: as §1

[6] = molecular target: human CD33 extracellular region N20H (human, UniProt P20138 21-259)
Method: as §1

[7] = molecular target: human CD33 extracellular region F21V (human, UniProt P20138 22-259)
Method: as §1

[8] = molecular target: human CD33 extracellular region F21N (human, UniProt P20138 22-259)
Method: as §1

[9] = molecular target: human CD33 extracellular region F21Q (human, UniProt P20138 22-259)
Method: as §1

[10] = molecular target: human CD33 extracellular region F21H (human, UniProt P20138 22-259)
Method: as §1

[11] = molecular target: human CD33 extracellular region W22S (human, UniProt P20138 18-259)
Method: as §1

[12] = molecular target: human CD33 extracellular region W22R (human, UniProt P20138 18-259)
Method: as §1

[13] = molecular target: human CD33 extracellular region W22K (human, UniProt P20138 18-259)
Method: as §1

[14] = molecular target: human CD33 extracellular region F43S (human, UniProt P20138 18-259)
Method: as §1

[15] = molecular target: human CD33 extracellular region F44S (human, UniProt P20138 18-259)
Method: as §1

[16] = molecular target: human CD33 extracellular region H45Y (human, UniProt P20138 18-259)
Method: as §1

[17] = molecular target: human CD33 extracellular region P48D (human, UniProt P20138 18-259)
Method: as §1

[18] = molecular target: human CD33 extracellular region P48S (human, UniProt P20138 18-259)
Method: as §1

[19] = molecular target: human CD33 extracellular region Y50S (human, UniProt P20138 18-259)
Method: as §1

[20] = molecular target: human CD33 extracellular region Y50K (human, UniProt P20138 18-259)
Method: as §1

[21] = molecular target: human CD33 extracellular region Y50H (human, UniProt P20138 18-259)
Method: as §1

[22] = molecular target: human CD33 extracellular region N100Q (human, UniProt P20138 18-259)
Method: as §1

[23] = molecular target: human CD33 extracellular region R119A (human, UniProt P20138 18-259)
Sequence of human CD33 extracellular region R119A (P20138 other isoform, or with tags, fused parts or gaps R119A R119A): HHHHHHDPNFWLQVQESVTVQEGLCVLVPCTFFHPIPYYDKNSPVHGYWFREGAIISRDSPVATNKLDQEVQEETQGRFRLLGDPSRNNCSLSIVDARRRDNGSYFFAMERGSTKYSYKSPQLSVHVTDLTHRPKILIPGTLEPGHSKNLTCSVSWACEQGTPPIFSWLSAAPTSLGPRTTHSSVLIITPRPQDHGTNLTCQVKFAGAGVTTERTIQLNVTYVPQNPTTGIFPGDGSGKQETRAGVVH
Method: as §1

Sequence of human CD33 extracellular region P48D (P20138 other isoform, or with tags, fused parts or gaps P48D P48D): as the sequence (P20138 other isoform, or with tags, fused parts or gaps R119A R119A) above, with P37D, A108R counted along it
Sequence of human CD33 extracellular region F44S (P20138 other isoform, or with tags, fused parts or gaps F44S F44S): as the sequence (P20138 other isoform, or with tags, fused parts or gaps R119A R119A) above, with F33S, A108R counted along it
Sequence of human CD33 extracellular region Y50S (P20138 other isoform, or with tags, fused parts or gaps Y50S Y50S): as the sequence (P20138 other isoform, or with tags, fused parts or gaps R119A R119A) above, with Y39S, A108R counted along it
Sequence of human CD33 extracellular region F21N (P20138 other isoform, or with tags, fused parts or gaps F21N F21N): as the sequence (P20138 other isoform, or with tags, fused parts or gaps R119A R119A) above, with F10N, A108R counted along it
Sequence of human CD33 extracellular region N20G (P20138 other isoform, or with tags, fused parts or gaps N20G N20G): as the sequence (P20138 other isoform, or with tags, fused parts or gaps R119A R119A) above, with N9G, A108R counted along it
Sequence of human CD33 extracellular region Y50K (P20138 other isoform, or with tags, fused parts or gaps Y50K Y50K): as the sequence (P20138 other isoform, or with tags, fused parts or gaps R119A R119A) above, with Y39K, A108R counted along it
Sequence of human CD33 extracellular region N20V (P20138 other isoform, or with tags, fused parts or gaps N20V N20V): as the sequence (P20138 other isoform, or with tags, fused parts or gaps R119A R119A) above, with N9V, A108R counted along it
Sequence of human CD33 extracellular region F43S (P20138 other isoform, or with tags, fused parts or gaps F43S F43S): as the sequence (P20138 other isoform, or with tags, fused parts or gaps R119A R119A) above, with F32S, A108R counted along it
Sequence of human CD33 extracellular region N20H (P20138 other isoform, or with tags, fused parts or gaps N20H N20H): as the sequence (P20138 other isoform, or with tags, fused parts or gaps R119A R119A) above, with N9H, A108R counted along it
Sequence of human CD33 extracellular region W22R (P20138 other isoform, or with tags, fused parts or gaps W22R W22R): as the sequence (P20138 other isoform, or with tags, fused parts or gaps R119A R119A) above, with W11R, A108R counted along it
Sequence of human CD33 extracellular region F21Q (P20138 other isoform, or with tags, fused parts or gaps F21Q F21Q): as the sequence (P20138 other isoform, or with tags, fused parts or gaps R119A R119A) above, with F10Q, A108R counted along it
Sequence of human CD33 extracellular region F21V (P20138 other isoform, or with tags, fused parts or gaps F21V F21V): as the sequence (P20138 other isoform, or with tags, fused parts or gaps R119A R119A) above, with F10V, A108R counted along it
Sequence of human CD33 extracellular region N100Q (P20138 other isoform, or with tags, fused parts or gaps N100Q N100Q): as the sequence (P20138 other isoform, or with tags, fused parts or gaps R119A R119A) above, with N89Q, A108R counted along it
Sequence of human CD33 extracellular region N20K (P20138 other isoform, or with tags, fused parts or gaps N20K N20K): as the sequence (P20138 other isoform, or with tags, fused parts or gaps R119A R119A) above, with N9K, A108R counted along it
Sequence of human CD33 extracellular region W22K (P20138 other isoform, or with tags, fused parts or gaps W22K W22K): as the sequence (P20138 other isoform, or with tags, fused parts or gaps R119A R119A) above, with W11K, A108R counted along it
T1 sequence (P20138 other isoform, or with tags, fused parts or gaps): as the sequence (P20138 other isoform, or with tags, fused parts or gaps R119A R119A) above, with A108R counted along it
Sequence of human CD33 extracellular region P48S (P20138 other isoform, or with tags, fused parts or gaps P48S P48S): as the sequence (P20138 other isoform, or with tags, fused parts or gaps R119A R119A) above, with P37S, A108R counted along it
Sequence of human CD33 extracellular region W22S (P20138 other isoform, or with tags, fused parts or gaps W22S W22S): as the sequence (P20138 other isoform, or with tags, fused parts or gaps R119A R119A) above, with W11S, A108R counted along it
Sequence of human CD33 extracellular region N20D (P20138 other isoform, or with tags, fused parts or gaps N20D N20D): as the sequence (P20138 other isoform, or with tags, fused parts or gaps R119A R119A) above, with N9D, A108R counted along it
Sequence of human CD33 extracellular region H45Y (P20138 other isoform, or with tags, fused parts or gaps H45Y H45Y): as the sequence (P20138 other isoform, or with tags, fused parts or gaps R119A R119A) above, with H34Y, A108R counted along it
Sequence of human CD33 extracellular region Y50H (P20138 other isoform, or with tags, fused parts or gaps Y50H Y50H): as the sequence (P20138 other isoform, or with tags, fused parts or gaps R119A R119A) above, with Y39H, A108R counted along it
Sequence of human CD33 extracellular region F21H (P20138 other isoform, or with tags, fused parts or gaps F21H F21H): as the sequence (P20138 other isoform, or with tags, fused parts or gaps R119A R119A) above, with F10H, A108R counted along it

Binder	% WT binding [1] [%]	% WT binding [2] [%]	% WT binding [3] [%]	% WT binding [4] [%]	% WT binding [5] [%]	% WT binding [6] [%]	% WT binding [7] [%]	% WT binding [8] [%]	% WT binding [9] [%]	% WT binding [10] [%]	% WT binding [11] [%]	% WT binding [12] [%]	% WT binding [13] [%]	% WT binding [14] [%]	% WT binding [15] [%]	% WT binding [16] [%]	% WT binding [17] [%]	% WT binding [18] [%]	% WT binding [19] [%]	% WT binding [20] [%]	other results
Refmab #4 (antibody, human IgG1, V domains shown) VH: QVQLVQSGAEVKKPGESVKVSCKASGYTFTNYGMNWVKQAPGQGLEWMGWINTYTGEPTYADKFQGRVTMTTDTSTSTAYMEIRNLGGDDTAVYYCARWSWSDGYYVYFDYWGQGTSVTVSS VL: DIVMTQSPDSLTVSLGERTTINCKSSQSVLDSSTNKNSLAWYQQKPGQPPKLLLSWASTRESGIPDRFSGSGSGTDFTLTIDSPQPEDSATYYCQQSAHFPITFGQGTRLEIK	100	115	91.3	102	96.5	104	101	83	89	108	93	82.8	113	80	84.6	69.3	5.75	21.8	22.6	0	% WT binding [21]: 28%; % WT binding [22]: 114%; % WT binding [23]: 95%
Refmab #3 (antibody, human IgG1, V domains shown) VH: QVQLVQSGAEVKKPGSSVKVSCKASGYTFTDYNMHWVRQAPGQGLEWIGYIYPYNGGTGYNQKFKSKATITADESTNTAYMELSSLRSEDTAVYYCARGRPAMDYWGQGTLVTVSS VL: DIQMTQSPSSLSASVGDRVTITCRASESVDNYGISFMNWFQQKPGKAPKLLIYAASNQGSGVPSRFSGSGSGTDFTLTISSLQPDDFATYYCQQSKEVPWTFGQGTKVEIK	100	0	0	0	6.34	0	0	0	0	0	20.1	0	0	64.8	39	35.1	76.4	74	70.9	122	% WT binding [21]: 111%; % WT binding [22]: 124%; % WT binding [23]: 118%

Reference: patent US20260242735A1 (UNIVERSIT T BASEL, published 2026)
